We go through 40 sequences from the nanobody polyreactivity screen of Harvey et al. (2022).

A short description of the data set: yeast display, Sf9 membrane polyspecificity reagent, FACS + sequencing; frameworks hold sequencing errors. The method in brief: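 Polyreactivity labels are assigned by the sorting gate from which each nanobody was recovered. The gates were low and high (top ~1%), set on anti-HA fluorescence for expression and streptavidin fluorescence for reagent binding. Before sorting, galactose-induced (36–48 hours) yeast display cells were stained for 1 hour at 4 °C with 10% biotinylated, detergent-solubilized Sf9 membrane reagent.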
“QVQLVESGGGLVQAGGSLRLSCAASGSTLASYAMGWYRQAPGKERELVAAISLSGGSTYYADSVKGRFTISRDNAKNTVYLQMNSLKPEDTAVYYCAAETVRYEWGESPAALFDYWGQGTQVTVSS”: the “polyreactivity (PSR sort gate)” value is given as “low polyreactivity”.
Turning to “QVQLVESGGGLVQAGGSLRLSCAASGSTLASYAMGWYRQAPGKERELVAAISSSGGSTYYADSVKGRFTISRDNAKNTVYLQMNSLKPEDTAVYYCAARTRTRYGIDYYWGQGTQVTVSS”, the “polyreactivity (PSR sort gate)” value was “high polyreactivity”.
For the sequence “QVQLVESGGGLVQAGGSLRLSCAASGSTLATNAMGWYRQAPGKERELVAYADSVKGRFTISRDNAKNTVYLQMNSLKPEDTAVYYCNVEAPGRAQYGYPQGDYWGQGTQVTVSS”, the “polyreactivity (PSR sort gate)” value is reported as “low polyreactivity”.
Consider “QVQLVESGGGLVQAGGSLRLSCAASGSTLAVYAMGSYRQAPGKERELVAAISKRGGTTYYADSVKGRFTISRDNAKNTVYLQMYSLKPDDTAVYYCARESYYRGNYDYDYWGQGTQVTVSS”, for which the “polyreactivity (PSR sort gate)” value was “high polyreactivity”.
On to “QVQLVESGGGLVQAGGSLRLSCAASGSTLDRNTMGWYRQAPGKERELVAAITSSGGRTYYADSVKGRFTISRDNEKNTVYFQMNSLKPDDTAVYYCNNDYWKRPVDEYDYWGQGTQVTVSS”, for which the “polyreactivity (PSR sort gate)” value was “high polyreactivity”.
For the sequence “QVQLVESGGGLVQAGGSLRLSCAASGSTLDRYVMGWYRQATGKERELVAAISRNGGSTYYADSVKGRFTISRDNAKNTVYLQMNSLIPEDTAVYNCARYAGFPYTQGDYWGQGTQVTVSS”, the “polyreactivity (PSR sort gate)” value was “high polyreactivity”.
“QVQLVESGGGLVQAGGSLRLSCAASGSTLDVYAMGWYRQAPGKERELVAAITVRATSTYYADSVKGRFTISRDNAKNTVYLQMNSQKPEDTAVYYCDARYEFFYKAFDVDSWGQGTQVTVSS”: the “polyreactivity (PSR sort gate)” value is listed as “low polyreactivity”.
Regarding “QVQLVESGGGLVQAGGSLRLSCAASGSTLDYNAMGWYRQAPGKEREFVADITWSGGSTHYADSVKGRFTISRDNSKNTVYLQMNSLKPEDTAVYYCATAYYYHGGYYYPYDDYWGQGTQVTVSS”, the “polyreactivity (PSR sort gate)” value is “low polyreactivity”.
Take “QVQLVESGGGLVQAGGSLRLSCAASGSTLEFNAMGWYRQAPGKERELVAVINRSDGSTYYADSVKGRFTISRDNAKNTVYLQMNSLKPEDTADYYCAADRHQVSVISTEDYWGQGTQVTVSS”: the “polyreactivity (PSR sort gate)” value was “low polyreactivity”.
Take “QVQLVESGGGLVQAGGSLRLSCAASGSTLEYYAMGWYRQAPGKERELVAAISSGGSTNYADSVKGRFTISRDNAKNTVYLQMNSLKTEDTAVYYCAAERYYRFVYTCYDYWGQGTQVTVSS”: the “polyreactivity (PSR sort gate)” value is “high polyreactivity”.
As for “QVQLVESGGGLVQAGGSLRLSCAASGSTLFAYAMGWYRQAPGTERELVAAITSGASTNYADSVKGRFTISRDNAKNTVYLQMNSLKPEDTAVYYCAKDVSGTNPDYDYWGQGTQVTVSS”, the “polyreactivity (PSR sort gate)” value was “low polyreactivity”.
“QVQLVESGGGLVQAGGSLRLSCAASGSTLFSYAMGWYRQAPRKEREFVAAISRRGGSTYYADSVKGRFTISRDNAKNTVYLQMNSLKPEVTAVYYCNTVRVHGFPIDRIYVYWGQGTQVTVSS”: the “polyreactivity (PSR sort gate)” value was “high polyreactivity”.
As to “QVQLVESGGGLVQAGGSLRLSCAASGSTLFYAMGWYRQAPGKERELHAAISWSGGSTRYADSVKGRFTISRDNAKNTVYLQMNIMKPEDTAVYYCNTYTKHTGYYWKYDYWGQGTQVTVSS”, the “polyreactivity (PSR sort gate)” value was “low polyreactivity”.
For the sequence “QVQLVESGGGLVQAGGSLRLSCAASGSTLGGNAMGWYRRAPGKERELVAAITSSAGSTYYADSVKGRFTISRDNAKNTVYLQMNSLKPEDTAVYYCAADYSRDEYDYWGQGTQVTVSS”, the “polyreactivity (PSR sort gate)” value was “low polyreactivity”.
Turning to “QVQLVESGGGLVQAGGSLRLSCAASGSTLGGYAMGWYRQAPGKERELVAAISGSRGSTYYADSVKGRFTISRDNAKNTVYLQMTSLKPEDTAVYYCAAGSYWVQYQYDYWGQGTQVTVSS”, the “polyreactivity (PSR sort gate)” value was “low polyreactivity”.
Under “QVQLVESGGGLVQAGGSLRLSCAASGSTLGRYALGWYRQAPGKERELVASITWSDDSTYYADSVKGRFTISRDNAKNTVYLQMNSLKPEDTAVYYCAAAGNLYTYRFYYWGQGTQVTVSS” stands “low polyreactivity”; under “QVQLVESGGGLVQAGGSLRLSCAASGSTLGRYAMGWYRQAPGKERELVASITWSDDSTYYADSVKGRFTISRDNAKNTVYLQMNSLKPEDTAVYYCNAPPGTFQWQGHSDYWGQGTQVTVSS”, “low polyreactivity”; under “QVQLVESGGGLVQAGGSLRLSCAASGSTLGRYSMGWYRQAPGKERELVAAISWRGGSTYYADSVKGRFTISRDNAKNTVYLQMNSLKPEDTPVYYCAATYRFSEYYYWGQGTQVTVSS”, “high polyreactivity”.
As to “QVQLVESGGGLVQAGGSLRLSCAASGSTLGVNAMGWYRQAPGKEREFVAAITGRGGNTYYADSVKGRFTISRDNAKNTVYLQMNSLTPEDTAVYYCAARDKYTRYQSILDYYYWGQGTQVTVSS”, the “polyreactivity (PSR sort gate)” value is “high polyreactivity”.
As for “QVQLVESGGGLVQAGGSLRLSCAASGSTLHEYAMGWSIQAPGKERELVAAISRGGGNTNYADSVKGRFTISRDNAKNTVYLQMNSLKPEDTAVYYCNARHGKIIFYLERYDYWGQGTQVTVSS”, the “polyreactivity (PSR sort gate)” value is on record as “low polyreactivity”.
“QVQLVESGGGLVQAGGSLRLSCAASGSTLHEYAMGWYRQAPGKARELVAAISRGGGNTNYADSVKGRFTISRDNAKNTVYLQMNSLIPEDTAVYYCNARHGKIIFYLERYDYWGQGTQVTVSS”: the “polyreactivity (PSR sort gate)” value is on record as “low polyreactivity”.
The same measure for “QVQLVESGGGLVQAGGSLRLSCAASGSTLKYNALGWYRQAPGKERELVAAISTSGGNTYYADSVKGRFTISRDYAKNTVYLQMNTLKPEDTAVYYCAKVLGFYYYDYYTPFARGYWGQGTQVTVSS”: “low polyreactivity”; for “QVQLVESGGGLVQAGGSLRLSCAASGSTLLYYVMGWYRQAPGKERELVAAITGTGGRTYYADSVKGRFTISRDNAKNTVYLQMNSLKPEDTAVYYCAADGKFEYDYWGQGTQVTVSS”: “low polyreactivity”; for “QVQLVESGGGLVQAGGSLRLSCAASGSTLNRNAMGWYRQAPGKERELVAAIRVSGGSTYYADSVKGRFTISRDNAKNTVYLQMNSLKPEDTAVYYCATRYVRARWYGYWGQGTQVTVSS”: “high polyreactivity”.
As to “QVQLVESGGGLVQAGGSLRLSCAASGSTLNRNVMGWYRQAPGKERELVAVITYGVGSTYYADSVKGRFTISRDNAKNTVYLQMNSLKPEDTAVYYCNRPTYLHSTSYSYDYWGQGTQVTVSS”, the “polyreactivity (PSR sort gate)” value is “low polyreactivity”.
For the sequence “QVQLVESGGGLVQAGGSLRLSCAASGSTLNYYAMGWYRQAPGKERELVAAIRSGGNTNYADSVKGRFTISRDNAKNTVYLQMNSLKPEDTAVYYCAKDESYFYDRVPLDYWGQGTQVTVSS”, the “polyreactivity (PSR sort gate)” value is reported as “low polyreactivity”.
Consider “QVQLVESGGGLVQAGGSLRLSCAASGSTLPGFTMGWYRHAPGKERELVAAISWSGGSTSYADSVKGRFTISRDNAKNTVYLQMNSLKPEDTAVYYCDVDRFWRPVRSGSTYDYWGQGTQVTVSS”, for which the “polyreactivity (PSR sort gate)” value is on record as “low polyreactivity”.
Take “QVQLVESGGGLVQAGGSLRLSCAASGSTLPNNAMGWYRQAPGKERELVAAISSSGGSTYYADSVKGRFTISRDNAKNTVYLQMNSLKPEDTAVYYCAAVYSRGTYNYWGQGTQVTVSS”: the “polyreactivity (PSR sort gate)” value is on record as “high polyreactivity”.
Take “QVQLVESGGGLVQAGGSLRLSCAASGSTLQINGMGWYRQAPGKERELVAAISIGGDTNYADSVKGRFTISRDNAMNTVSLQMNSLKPEDTAVYYCAASGAYDEAYGEAFYYWGQGTQVIVSS”: the “polyreactivity (PSR sort gate)” value is listed as “low polyreactivity”.
In the case of “QVQLVESGGGLVQAGGSLRLSCAASGSTLQVNAMGWYRQATGKERELVDTISFSGGSTYYADSVKGRFTISRDNAKNTVYLQMNSLKPEDTAVYYCNADSFVSWYNQFWYQATYDYWGQGTQVTVSS”, the “polyreactivity (PSR sort gate)” value is “low polyreactivity”.
Take “QVQLVESGGGLVQAGGSLRLSCAASGSTLRGNAMGRYRQAPGKVREFVAAISSSGGRTYYADSVKGRFTISRDNAKNTVNLQMTSLNPEDTAVYYCAAARYQYYFSSVPRAYYYWGQGTQVTVSS”: the “polyreactivity (PSR sort gate)” value is on record as “high polyreactivity”.
Regarding “QVQLVESGGGLVQAGGSLRLSCAASGSTLRGYAMGWYRQAPGKERELVAAITYISDSTYYADSVKGRFTISRDNAKNTVYLQMNSLKPEDTAVYYCNAYYDGDWRYTSQETGDHWGQGTQVTVSS”, the “polyreactivity (PSR sort gate)” value is given as “low polyreactivity”.
“QVQLVESGGGLVQAGGSLRLSCAASGSTLRRNAMGWSRQAPGKERELVAAITGSRGSTFYADSVKGRFTISRDNAKNTVYLQMNSLKPEDTAVYYCAVYKWSTRVSQYRYDYWGQGTQVTVSS”: the “polyreactivity (PSR sort gate)” value is “high polyreactivity”.
Under “QVQLVESGGGLVQAGGSLRLSCAASGSTLRRNAMGWYRQAPGKERELVAAISGTGGSTYYADSVKGRFTISRDNAKNTVYLQMYSLKPEDTAVYYCAATGWYYDYDYWGQGTQVTVSS” stands “low polyreactivity”; under “QVQLVESGGGLVQAGGSLRLSCAASGSTLRRNAMGWYRQAPGKERELVAAITGSRGSTFYADSVKGRFTISRDNAKNTVYLQMNSLKPEDTAVYYCAVYKWSTRVSQYRYDYWGQGTQVTVSS”, “high polyreactivity”; under “QVQLVESGGGLVQAGGSLRLSCAASGSTLRSKAMGWYRQAQGKERELVASISSGGSTSYADSVKGRFTISRDNAKNTVYLQMNSLKPEDTAVYYCAADNSVGSYDYWGQGTQVTVSS”, “low polyreactivity”.
On to “QVQLVESGGGLVQAGGSLRLSCAASGSTLRTYAMVWYRQAPGKERELVAAISFSTTSTYYADSVKGRFTISRDNATNTVYLQMNSLKPEDTAVYYCAATYQILTTSAHDSWGQGTQVTVSS”, for which the “polyreactivity (PSR sort gate)” value is listed as “high polyreactivity”.
As for “QVQLVESGGGLVQAGGSLRLSCAASGSTLSDYAMGWYRQAPGKERELVAAISTSGGRTYYADSVKGRFTISRDNAKNTVYLQMNSLKPEDTAVYYCAVDHYSSYEYWGQGTQVSVSS”, the “polyreactivity (PSR sort gate)” value was “low polyreactivity”.
As to “QVQLVESGGGLVQAGGSLRLSCAASGSTLSGNAMGWYRQAPGKERELVAAISWNGGATYYADSVKGRFTISRDNAKNTVYLQMNSQKPEDTAVYYCAAEYIVTYEYWYFGYDYWGQGTQVTVSS”, the “polyreactivity (PSR sort gate)” value is recorded as “low polyreactivity”.
Regarding “QVQLVESGGGLVQAGGSLRLSCAASGSTLSHYAMGWYRQAPGKERELVAAINSNGGSTYYADSVKGRFTISRDNAKNTVYLQMNSLKPEDTAVYYCKTYFRYFSFYGRPFDYWGQGTQVTVSS”, the “polyreactivity (PSR sort gate)” value is “high polyreactivity”.
